From paper PMC4541722

Legend:
[1] = substrate: Nc1ccn([C@@H]2O[C@H](CO)[C@@H](O)C2(F)F)c(=O)n1; assay: HPLC deamination assay, non-linear regression; type: biochemical, Homo sapiens; conditions: PBS, 37 °C, 10 min, 11 nM enzyme
[2] = substrate: Nc1ccn([C@H]2C[C@H](O)[C@@H](CO)O2)c(=O)n1; assay: HPLC deamination assay, non-linear regression; type: biochemical, Homo sapiens; conditions: PBS, 37 °C, 10 min, 11 nM enzyme

B1: CDAHuman (Homo sapiens) (protein)
chain: MAQKRPACTLKPECVQQLLVCSQEAKKSAYCPYSHFPVGAALLTQEGRIFKGCNIENACYPLGICAERTAIQKAVSEGYKDFRAIAIASDMQDDFISPCGACRQVMREFGTNWPVYMTKPDGTYIVMTVQELLPSSFGPEDLQKTQ
Km [1]: 3080 ± 598 µM | kcat [1]: 14 ± 0.91 s⁻¹ | kcat/Km [1]: 4000 M⁻¹ s⁻¹ | Km [2]: 373 ± 138 µM | kcat [2]: 7.8 ± 0.64 s⁻¹ | kcat/Km [2]: 21000 M⁻¹ s⁻¹
